Target: T1, 生物素化的IL-17A of the IL-17A[Biotinylated] : IL-17RA Inhibitor Screening ELISA Kit (ACROBiosystems, EP-139) (UniProt Q16552)
T1 sequence (biotinylated, looked up): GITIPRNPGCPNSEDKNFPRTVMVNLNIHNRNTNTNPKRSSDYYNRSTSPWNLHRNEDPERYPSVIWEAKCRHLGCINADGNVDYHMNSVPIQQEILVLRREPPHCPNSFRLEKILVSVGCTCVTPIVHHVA
Assay: competition ELISA kit (ACROBiosystems EP-139): IL-17RA coated, biotinylated IL-17A, culture supernatant diluted 5-fold

结合抑制率: 58%
B1: IL-17Nb secreted by C3-H10-MSC (1-C3-3-H10: Fc融合蛋白, VHH-(GGGGS)3-VHH-IgG4 Fc) (Fc fusion)
chain: DVQLVESGGGLVEPGESLRLSCAAPGEDLGYYAIAWFRQAPGKEREVVSCVTSSGSSTNYLSSVKDRFTISIDNAKNTVYLQMNSLKPEDTAVYYCASTILLCSDYISAFGTWGQGTQVTVASGGGGSGGGGSGGGGSEVQLVESGGGLVQPGGSLRLSCAASGFSIHIYAMGWYRQAPGKQRELVATITRGGVTNNADSVKGRFTISRDNAKNTAYLQMNSLKPEDTAVYYCNAGGTNGGYWGQGTQVTVSSAPEFLGGPSVFLFPPKPKDTLMISRTPEVTCVVVDVSQEDPEVQFNWYVDGVEVHNAKTKPREEQFNSTYRVVSVLTVLHQDWLNGKEYKCKVSNKGLPSSIEKTISKAKGQPREPQVYTLPPSQEEMTKNQVSLTCLVKGFYPSDIAVEWESNGQPENNYKTTPPVLDSDGSFFLYSRLTVDKSRWQEGNVFSCSVMHEALHNHYTQKSLSLSLGK

From patent publication CN117866903A
